In patent US20210155689A1 (SHANGHAI PHARMAEXPLORER, published 2021):
Changes are numbered by the printed parent chain.

B1: 556F6B8 (mouse antibody purified from hybridoma) (antibody, V domains shown)
VH: RVQLKQSGPGLVQPSQSLSITCTVSGFSLIKYGVHWVRQSPGEGLEWLGVIWRGGITDYNAAFMSRLSITKDNSKSQVFFKMNSLQADDTAIYYCAKWDGPLAMDYWGQGTSVTVSS
VL: DIVMTQSHKFLSTSVGDRVSITCKASQDVGTTVAWYQQKPGQSPKLLIYWASTRHTGVPDRFTGSGSGTDFTLTISNVQSEDLADYFCQQYSSYPYTFGGGTKLEIK
notes: also called mAb123-556F6B8
B2: 405B8H3 (mouse antibody purified from hybridoma) (antibody, V domains shown)
VH: QVQLQQSGAELVRPGASVTLSCKASGYTFTDYEMHWVKQTPVHGLEWIGATDPETGNSAYNQKFKGKAIMTADKSSSTAYMELRSLTSEDSAVYYCISTGWNDWGQGTSLTVSS
VL: DIKMTQSPSSMYASLGERVTITCKASQDINSYLSWFQQKPGKSPKTLIYRADRLLDGVPSRFSGSGSGQDYSLTISSLEYGDMGIYYCLQYDEFPYTFGGGTKLEIK
notes: also called mAb103-405B8H3; 405B81-13
B3: 105F1E10 (mouse antibody purified from hybridoma) (antibody, V domains shown)
VH: EVQLQQSGPELVKPGASVKMSCRASGYTFTDFKMHWMKQSHGKSLEWIGYIAPNNGGTAYNQKFRGKATLTVNESSNTAYMELRSLTSEDSAVYYCVDWDDVDYWGQGTTLTVSS
VL: B2 VL with P40S, D52N, L55V, G81E, D92V, Y96L, G100A, I106L
notes: also called mAb009-105F1E10
B4: 409B11E12 (mouse antibody purified from hybridoma) (antibody, V domains shown)
VH: B2 VH with P41T, G56S, N57Y, M70L, S98A
VL: B2 VL with I2L, D52N, G81E
notes: also called mAb104-409B11E12
B5: 409D4E10 (mouse antibody purified from hybridoma) (antibody, V domains shown)
VH: B2 VH with Y27N, G56D, S58T, M70L, A72T, S98T, T99S
VL: B2 VL with D52N, G81E, D92N
notes: also called mAb112-409D4E10

Key:
[1] = target: T1, human LAG-3 (full length, on the cell surface) (human, UniProt P18627 23-525); test: cell-based or functional assay
T1 sequence: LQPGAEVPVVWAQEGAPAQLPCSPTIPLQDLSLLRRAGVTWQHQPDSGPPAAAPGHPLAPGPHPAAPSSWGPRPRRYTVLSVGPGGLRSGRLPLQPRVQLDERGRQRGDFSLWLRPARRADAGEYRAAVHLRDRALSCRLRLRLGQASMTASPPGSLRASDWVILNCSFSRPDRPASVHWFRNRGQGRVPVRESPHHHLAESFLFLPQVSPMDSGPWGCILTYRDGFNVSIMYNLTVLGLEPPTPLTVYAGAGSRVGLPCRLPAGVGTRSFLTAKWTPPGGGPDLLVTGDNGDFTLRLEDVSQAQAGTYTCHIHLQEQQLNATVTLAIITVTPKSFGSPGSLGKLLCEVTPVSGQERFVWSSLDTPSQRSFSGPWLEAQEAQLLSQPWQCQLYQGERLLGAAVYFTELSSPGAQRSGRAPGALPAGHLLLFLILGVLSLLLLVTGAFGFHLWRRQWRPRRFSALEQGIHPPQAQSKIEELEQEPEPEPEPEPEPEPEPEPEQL

[2] = target: T1, human LAG-3 (full length, on the cell …); test: FACS, HEK293-hLAG-3; 40.000 nM
Source text: The pIRES plasmid with the monkey-derived full-length gene was transfected into the HEK293 cell line to construct a HEK293 stable cell line containing monkey LAG-3 (herein referred to as HEK293-cLAG-3 stable cell line). The HEK293-hLAG-3 stable cell line and HEK293-cLAG-3 stable cell line were expanded in a T-75 cell culture flask to a 90% confluence. The medium was aspirated, and the cells were washed with HBSS (Hanks' Balanced Salt Solution) 1-2 times, then treated with a enzyme-free cell dissociation fluid (Versene solution: Life technology) and the cells were collected. The cells were washed with HBSS buffer for 1-2 times. After counted, the cells were diluted with HBSS to 1-2×10⁶ cells per ml, added with 1% goat serum blocking solution, incubated on ice for 20-30 minutes, and then washed with HBSS for 2 times by centrifugation. The collected cells were suspended in the FACS buffer (HBSS+1% BSA) to 2×10⁶ cells/ml, added as 100 microliters per well to a 96-well FACS reaction plate, added with 100 microliters per well of the antibody sample to be tested, incubated on ice for 1-2 hours. The plate was washed twice with the FACS buffer by centrifugation, added with 100 microliters of fluorescent (Alexa 488)-labeled secondary antibodies per well, and incubated on ice for 0.5-1.0 hours. The plate was washed 2-3 times with FACS buffer by centrifugation, added with 100 μl fixative solution (4% Paraformaldehyde) per well to suspend the cells. 5-10 minutes later, it was washed 1-2 times with FACS buffer by centrifugation. The cells were suspended with 100 microliters of FACS buffer, FACS (FACSCalibur, BD) was used for detection and the results were analyzed.

[3] = target: T2, human LAG-3 protein with hFc tag (hLAG-3-hFc protein) (human, UniProt P18627 23-450); test: FACS, blocks LAG-3-hFc binding to MHC II on Raji; 0.823 nM
T2 construct: also called immunogen 1; LAG-3 extracellular domain protein; not shown: human IgG Fc fragment (hFc) of the pCpC vector
T2 sequence: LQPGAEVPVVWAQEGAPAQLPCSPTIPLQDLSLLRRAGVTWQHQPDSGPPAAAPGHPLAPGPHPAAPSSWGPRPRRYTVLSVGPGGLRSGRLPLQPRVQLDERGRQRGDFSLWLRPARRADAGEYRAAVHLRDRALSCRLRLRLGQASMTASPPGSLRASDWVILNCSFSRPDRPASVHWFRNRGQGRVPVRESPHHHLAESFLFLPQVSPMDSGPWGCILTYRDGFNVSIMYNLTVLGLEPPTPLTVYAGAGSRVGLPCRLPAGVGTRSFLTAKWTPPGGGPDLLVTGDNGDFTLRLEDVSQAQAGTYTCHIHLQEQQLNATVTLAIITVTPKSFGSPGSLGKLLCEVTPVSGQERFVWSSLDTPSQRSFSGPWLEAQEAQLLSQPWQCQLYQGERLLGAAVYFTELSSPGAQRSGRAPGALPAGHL
Procedure: The FACS reaction plate incubating the Raji cells was centrifuged to discard the supernatant. The above mixture was added as 100 μl per well to Raji cells and incubated on ice for 1-2 hours. The plate was washed twice with blocking solution (PBS, 2% fetal bovine serum) by centrifugation, added with 100 microliters of fluorescent (Alexa 488)-labeled secondary antibodies per well, and incubated on ice for 1.0 hours. The plate was washed 2-3 times by centrifugation with blocking solution (PBS, 2% fetal bovine serum), added with 100 microliters of PBS per well to suspend cells, and detected using FACS (FACS Calibur, BD) and the results were analyzed. Wherein, the IgG control was murine IgG, and the data in the table is the inhibition rate (%).

Binder | mIL-2 (pg/mL), antigen-specific T lymphocyte stimulation test; antibody 0.016 ug/mL [1] [pg/mL] | mIL-2 (pg/mL), antigen-specific T lymphocyte stimulation test; antibody 0.08 ug/mL [1] [pg/mL] | mIL-2 (pg/mL), antigen-specific T lymphocyte stimulation test; antibody 2 ug/mL [1] [pg/mL] | mIL-2 (pg/mL), antigen-specific T lymphocyte stimulation test; antibody 4 ug/mL (so in the source) [1] [pg/mL] | mIL-2 (pg/mL), antigen-specific T lymphocyte stimulation test; antibody 10 ug/mL [1] [pg/mL] | Mean fluorescence intensity [2] [MFI] | Inhibition rate (%) [3] [%]
B1 | 88.3 | 141 | 270 | 214 | 255 | 81.8 | 20.1
B2 | 205 | 204 | 435 | 392 | 441 | 321 | 10.9
B3 |  |  |  |  |  | 315 | 7
B4 | 187 | 183 | 376 | 374 | 364 | 148 | 15.3
B5 | 172 | 175 | 346 | 261 | 335 | 153 | 18.2
